Experiment [1] has as its target T1, Human angiopoietin-2 (ANG-2) with His-tag (human, UniProt O15123 19-496).
T1 sequence: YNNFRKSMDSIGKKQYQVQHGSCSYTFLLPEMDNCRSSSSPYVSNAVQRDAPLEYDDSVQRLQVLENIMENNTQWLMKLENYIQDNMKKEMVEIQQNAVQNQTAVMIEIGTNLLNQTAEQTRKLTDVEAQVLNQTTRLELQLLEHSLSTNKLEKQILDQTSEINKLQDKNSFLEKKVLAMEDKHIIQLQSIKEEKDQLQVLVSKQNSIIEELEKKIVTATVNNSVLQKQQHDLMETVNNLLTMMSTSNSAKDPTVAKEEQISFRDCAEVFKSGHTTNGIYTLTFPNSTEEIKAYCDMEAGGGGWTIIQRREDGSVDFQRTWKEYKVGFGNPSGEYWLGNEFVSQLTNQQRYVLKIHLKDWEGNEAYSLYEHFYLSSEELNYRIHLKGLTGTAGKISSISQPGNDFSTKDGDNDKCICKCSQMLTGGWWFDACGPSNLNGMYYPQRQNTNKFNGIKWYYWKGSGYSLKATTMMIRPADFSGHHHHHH
As to the kind of experiment: cell-based or functional assay.

For experiment [2], the target named is T2, Human angiopoietin-1 (ANG-1) with His-tag (human, UniProt Q15389 16-498).
T2 sequence: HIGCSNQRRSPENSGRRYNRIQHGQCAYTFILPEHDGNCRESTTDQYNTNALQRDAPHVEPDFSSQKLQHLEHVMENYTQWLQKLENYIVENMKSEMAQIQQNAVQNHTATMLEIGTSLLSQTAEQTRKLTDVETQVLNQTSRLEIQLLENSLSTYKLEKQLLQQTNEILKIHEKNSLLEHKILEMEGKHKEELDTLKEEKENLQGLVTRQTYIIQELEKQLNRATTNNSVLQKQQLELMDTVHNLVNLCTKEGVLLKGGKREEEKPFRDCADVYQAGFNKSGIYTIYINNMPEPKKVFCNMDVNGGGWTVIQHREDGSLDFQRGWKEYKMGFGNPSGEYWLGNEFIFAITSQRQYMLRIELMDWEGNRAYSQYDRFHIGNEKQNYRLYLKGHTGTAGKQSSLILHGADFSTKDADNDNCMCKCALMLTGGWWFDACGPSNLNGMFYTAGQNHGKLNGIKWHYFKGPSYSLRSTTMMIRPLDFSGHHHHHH
Briefly: cell-based or functional assay.

Experiment [3] concerns the target T1, Human angiopoietin-2 (ANG-2) with …. Briefly: ANG-2 binding ELISA, human ANG-2 coated, antibody titrated. The procedure: (§1) The wells were washed three times with 300 μl PBST (0.2% Tween® 20) and blocked with 200 μl 2% BSA 0.1% Tween® 20 for 30 min at room temperature and subsequently washed three times with 300 μl PBST. […] The wells were washed three times with 300 μl PBST (0.2% Tween® 20) and bound antibody was detected with 100 μL/well 0.1 μg/ml F(ab′) POD (Biozol Cat. No. 206005) in 2% BSA 0.1% Tween® 20 as detection antibody for 1 h on a microtiterplate shaker at room temperature. Unbound detection antibody was washed away three times with 300 μL/well PBST and the bound detection antibody was detected by addition of 100 μL ABTS/well. Determination of absorbance was performed on a Tecan Fluor Spectrometer at a measurement wavelength of 405 nm (reference wavelength 492 nm).
(§2) Briefly, the ELISA-type assay is based on the immobilization of human wild-type Angiopoietin-1 or -2 in a microtiter plate.

For experiment [4] the target is unchanged. As to the kind of experiment: Biacore SPR, antibody captured by anti-Fc, ANG-2-His in solution, 1:1 model, Experiment 1. On the procedure: (§3) Biacore® T100 Evaluation Software version 1.1.1 was used for analysis of sensorgrams and for calculation of affinity data.
(§4) The affinity for this interaction is determined with the assumption of a 1:1 interaction. Details of this experiment can be found in the general methods section.
In general terms: Surface plasmon resonance follows binding to a sensor surface in real time, without labels.

Experiment [5] has the same target. As to the kind of experiment: ANGPT2/Tie2 interaction ELISA: antibody titrated with 0.2 ug/ml huAngiopoietin-2 on coated Tie2 (printed as 'inhibitory concentrations'). The procedure: The interaction ELISA was performed on 384 well microtiter plates (MicroCoat, DE, Cat. No. 464718) at RT. After each incubation step plates were washed 3 times with PBST. ELISA plates were coated with 0.5 μg/ml Tie-2 protein (R&D Systems, UK, Cat. No. 313-TI) for at least 2 hours (h). Thereafter the wells were blocked with PBS supplemented with 0.2% Tween® 20 and 2% BSA (Roche Diagnostics GmbH, DE) for 1 h. […] After washing a mixture of 0.5 μg/ml biotinylated anti-Angiopoietin-2 clone BAM0981 (R&D Systems, UK) and 1:3000 diluted streptavidin HRP (Roche Diagnostics GmbH, DE, Cat. No. 11089153001) was added for 1 h. Thereafter the plates were washed 6 times with PBST. Plates were developed with freshly prepared ABTS reagent (Roche Diagnostics GmbH, DE, buffer #204 530 001, tablets #11 112 422 001) for 30 minutes at RT. Absorbance was measured at 405 nm.
(§5) 384-well Maxisorp® plates (Nunc) were coated with 0.5 μg/ml human Tie2 (R&D Systems, UK, Cat. No. 313-TI or in house produced material) for 2 h at room temperature and blocked with PBS supplemented with 0.2% Tween® 20 and 2% BSA (Roche Diagnostics GmbH, DE) for 1 h at room temperature under shaking. […] After washing a mixture of 0.5 μg/ml biotinylated anti-Angiopoietin-1/2 clone (R&D Systems #BAF923, BAM0981 R&D Systems, UK) and 1:3000 diluted streptavidin HRP (Roche Diagnostics GmbH, DE, Cat. No. 11089153001) was added for 1 h. Thereafter the plates were washed 6 times with PBST. Plates were developed with freshly prepared ABTS reagent (Roche Diagnostics GmbH, DE, buffer #204 530 001, tablets #11 112 422 001) for 30 minutes at RT. Absorbance was measured at 405 nm.

Experiment [6] has the same target. Briefly: Biacore SPR, antibody captured by anti-Fc, ANG-2-His in solution, 1:1 model, Experiment 2. The procedure: as §3, §4
For experiment [7] the target is unchanged. Briefly: Biacore SPR, antibody captured by anti-Fc, ANG-2-His in solution, 1:1 model, average of Experiments 1 + 2. The procedure: as §3, §4
The target of experiment [8] is T2, Human angiopoietin-1 (ANG-1) with …. Briefly: ANG-1 binding ELISA, human ANG-1 coated, antibody titrated. On the procedure: as §1, §2
In general terms: An ELISA detects its analyte on a solid surface through an enzyme-linked reagent.

Experiment [9] shares this target. Briefly: ANGPT1/Tie2 interaction ELISA: antibody titrated with 0.2 ug/ml huAngiopoietin-1 on coated Tie2 (printed as 'inhibitory concentrations'). The procedure: After each incubation step plates were washed 3 times with PBST. […] Thereafter the wells were blocked with PBS supplemented with 0.2% Tween® 20 and 2% BSA (Roche Diagnostics GmbH, DE) for 1 h. […] Thereafter the plates were washed 6 times with PBST. Plates were developed with freshly prepared ABTS reagent (Roche Diagnostics GmbH, DE, buffer #204 530 001, tablets #11 112 422 001) for 30 minutes at RT. Absorbance was measured at 405 nm.
as §5

Experiment [10] has the same target. As to the kind of experiment: SPR (Biacore): huAng-1 amine-coupled on a CM5 chip (appr. 20000 RU), BSA on the reference cell, antibody 100 nM in HBS-P injected for 3 min, 3 min dissociation. On the procedure: The protein was injected for 20 min in sodium acetate pH 4.5 at 10 μg/ml at a flow rate of 5 μl/min. […] On the reference flow cell BSA was immobilized under the same conditions. The antibodies were diluted in HBS-P to 100 nM and injected for 3 min (association phase). After washing with running buffer for 3 min (dissociation phase), the surface was regenerated by injecting 10 mM sodium hydroxide for 1 min at 5 μl/min.

5 molecules from patent US20180282404A1 (Hoffmann-La Roche, published 2018) can be followed below.

Where only a bound is given, the exact number is not on record here.

B1: <ANG-2> Ang2k_LC08 (antibody, V domains shown)
VH: QVQLVESGGGVVQPGGSLRLSCAASGFTFSSYGMHWVRQAPGKGLEWVAVISYDGSNKYYADSVKGRFTISRDNSKNTLYLQMNSLRAEDTAVYYCAKPTLDIYMGYYYGMDVWGQGTTVTVSS
VL: QPVLTQPPSASGAPGQRVTISCSGFASNIGSNSVNWYQQVPGTAPKLLIYNNDQRPSGVPDRFSGSRSGTSASLAISGLQSEDEADYYCAAWDDSLNGPVFGGGTKLTVLG
notes: Only the variable domains are tied to this antibody
As to B1, in experiment [1], the “IC50 of ANGPT2 stimulated Tie2 phosphorylation (HEK293-Tie2 clone22, P-Tie2 sandwich ELISA)” value is about 0.499 µg/mL. Further, the “IC50 of ANGPT1 stimulated Tie2 phosphorylation (HEK293-Tie2 clone22, P-Tie2 sandwich ELISA)” value in [2] was about 0.391 µg/mL. Further, the half-maximal effective concentration (EC50) stood at 0.105 µg/mL in [3] and 4.04 µg/mL in [8]. Further, the dissociation constant Kd in [4] was 0.016 nM; in [6], 0.027 nM; in experiment [7] it was 0.022 nM. The koff in experiment [4] stood at 0.000161 s⁻¹; in [6], 0.000228 s⁻¹. In addition, the concentration for half-maximal inhibition (IC50) in experiment [5] worked out at 0.17 nM; in experiment [9], 11 nM.

B2: <ANG-2> Ang2i_LC07 (antibody, V domains shown)
VH: not shown
VL: QPVLTQSPSVSVAPGETARVACGGNFIGGKSVHWYQQKPGQAPVLVIYDDSERPSGIPERISGSNSGNTATLIITRAEAGDEADYHCQVWDSDSDQGVFGTGTKLTVLG
notes: as for B1
Regarding B2, the EC50 is 3.01 µg/mL in experiment [3] and over 8 µg/mL in experiment [8].

B3: human anti-ANG-2 antibody <ANG-2> antibody Mab536 (antibody, V domains shown)
VH: EVQLVQSGGGVVQPGRSLRLSCAASGFTFSSYGMHWVRQAPGKGLEWVSYISSSGSTIYYADSVKGRFTISRDNAKNSLYLQMNSLRAEDTAVYYCARDLLDYDILTGYGYWGQGTLVTVSS
VL: not shown
Take B3: the values for the EC50 in experiment [3] and in experiment [8] were 0.133 µg/mL and 2.54 µg/mL, respectively. Besides, the dissociation constant (Kd) in [4], in [6] and in experiment [7] was 0.029 nM in each case. Further, the koff stood at 0.000144 s⁻¹ in experiment [4] and 0.000125 s⁻¹ in [6]. For the same molecule, the concentration for half-maximal inhibition (IC50) in [5] turned out to be 0.15 nM.

B4: <ANG-2> Ang2i_LC06 (antibody, V domains shown)
VH: not shown
VL: QPGLTQPPSVSVAPGQTARITCGGNNIGSKSVHWYQQKPGQAPVLVVYDDSDRPSGIPERFSGSNSGNTATLTISRVEAGDEADYYCQVWDSSSDHYVFGTGTKVTVLG
notes: as for B1
Turning to B4, the “IC50 of ANGPT2 stimulated Tie2 phosphorylation (HEK293-Tie2 clone22, P-Tie2 sandwich ELISA)” value in experiment [1] is about 0.508 µg/mL. Further, the values for the concentration giving a half-maximal response (EC50) in [3] and in [8] were 0.084 µg/mL and over 8 µg/mL, respectively. Besides, the results for the Kd in [4], in experiment [6] and in [7] were 0.011 nM, 0.021 nM and 0.016 nM, respectively. Also, the values for the koff in [4] and in [6] were 7.16e-05 s⁻¹ and 0.000114 s⁻¹, respectively. For the same molecule, the concentration for half-maximal inhibition (IC50) in experiment [5] stood at 0.1 nM.

B5: <ANG-2> Ang2i_LC10 (antibody, V domains shown)
VH: not shown
VL: QPPSVSVAPGQTARITCGGNNIGSKSVHWYQQKPGQAPVLVVYDDSDRPSGIPERFSGSNSGNTATLTISRVEAGDEADYYCQVWDSSSDHWVFGGGTKLTVLG
As to B5, in experiment [10], the binding result was “no binding (tested: 100 nM)”.

As a reminder, the EC50 is the concentration needed to bring the measured effect to its halfway point. As usually defined, the Kd is a measure of binding affinity in units of concentration. What is called koff is the first-order rate constant of dissociation. Read a low koff as a long-lived complex. For orientation: IC50 means the concentration needed to halve the response being measured.
